The target in the assay is human CLEC14A (endogenous, in HUVECs) (human) (UniProt Q86T13). Nature of the assay: cell-based or functional assay.
Chain of UniProt Q86T13 (Q86T13 22-490): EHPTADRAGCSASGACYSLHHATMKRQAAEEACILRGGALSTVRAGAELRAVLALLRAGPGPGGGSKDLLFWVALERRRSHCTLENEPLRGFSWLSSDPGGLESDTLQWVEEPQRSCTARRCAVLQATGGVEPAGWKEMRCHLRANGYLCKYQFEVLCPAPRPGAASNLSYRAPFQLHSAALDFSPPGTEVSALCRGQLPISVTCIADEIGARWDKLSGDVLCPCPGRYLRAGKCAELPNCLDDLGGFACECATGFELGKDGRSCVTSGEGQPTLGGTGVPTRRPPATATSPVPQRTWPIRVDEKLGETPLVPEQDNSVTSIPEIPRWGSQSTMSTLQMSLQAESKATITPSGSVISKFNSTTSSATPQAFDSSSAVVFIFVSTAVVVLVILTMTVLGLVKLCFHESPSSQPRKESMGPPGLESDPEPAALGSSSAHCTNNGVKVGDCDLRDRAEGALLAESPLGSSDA

B1: anti-CLEC14A monoclonal antibody CRT-3 (antibody, from another filing, IgG1, V domains shown)
VH: EVQLQQSGTVLARPGASVKMSCKASGYTFTSYWMHWVKQRPGQGLEWIGAIYPGNSDTSYNQKFKGKAKLTAVTSTSTAYMELSSLTNEDSAVFYCTHYYGSDYAMDYWGQGTSVTV
VL: QIVLTQSPAIMSASLGERVTMTCTASSSVSSSYLHWYQQKPGSSPKLWIYSTSNLASGVPARFSGSGSGTSYSLTISSMEAEDAATYYCHQYHRSPRTFGGGTKLEIKR
With B1, the wound area remaining open at 12 h, HUVEC scratch wound healing assay, 10 µg/ml antibody came to 25%.

Source of the values: patent US20120276000A1.
